In PMC10397247:

Experiments:
Test in all cases: two-hybrid library CCNG1;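 further: natural log of median RNA to DNA barcode read ratio; higher means stronger binding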
4H741-bN = biological target: T1, 4H741-bN
T1 chain: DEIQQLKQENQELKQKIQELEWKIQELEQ

4H3277-bN = biological target: T2, 4H3277-bN
T2 chain: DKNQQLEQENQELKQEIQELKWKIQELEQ

4H2503-bN = biological target: T3, 4H2503-bN
T3 chain: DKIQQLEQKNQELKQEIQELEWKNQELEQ

4H2717-bN = biological target: T4, 4H2717-bN
T4 chain: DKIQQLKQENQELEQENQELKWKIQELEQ

4H2673-bH = biological target: T5, 4H2673-bH
T5 chain: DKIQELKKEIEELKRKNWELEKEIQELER

4H348-bN = biological target: T6, 4H348-bN
T6 chain: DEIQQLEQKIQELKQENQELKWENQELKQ

4H2839-bN = biological target: T7, 4H2839-bN
T7 chain: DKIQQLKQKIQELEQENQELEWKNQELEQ

4H40-bN = biological target: T8, 4H40-bN
T8 chain: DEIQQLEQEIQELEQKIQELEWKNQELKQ

4H319-bN = biological target: T9, 4H319-bN
T9 chain: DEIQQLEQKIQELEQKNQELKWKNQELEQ

4H477-bN = biological target: T10, 4H477-bN
T10 chain: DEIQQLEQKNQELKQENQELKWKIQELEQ

4H3057-bN = biological target: T11, 4H3057-bN
T11 chain: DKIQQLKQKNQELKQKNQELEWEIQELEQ

4H2692-bN = biological target: T12, 4H2692-bN
T12 chain: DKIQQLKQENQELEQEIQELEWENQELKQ

4H2915-bN = biological target: T13, 4H2915-bN
T13 chain: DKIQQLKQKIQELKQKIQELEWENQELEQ

4H492-bN = biological target: T14, 4H492-bN
T14 chain: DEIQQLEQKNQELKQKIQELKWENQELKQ

4H2588-bN = biological target: T15, 4H2588-bN
T15 chain: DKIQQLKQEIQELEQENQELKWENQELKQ

4H2473-bN = biological target: T16, 4H2473-bN
T16 chain: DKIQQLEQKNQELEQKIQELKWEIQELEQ

P9bHq = biological target: T17, P9bHq
T17 chain: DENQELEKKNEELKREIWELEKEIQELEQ

P7bHq = biological target: T18, P7bHq
T18 chain: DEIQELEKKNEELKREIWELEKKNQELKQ

P6bHq = biological target: T19, P6bHq
T19 chain: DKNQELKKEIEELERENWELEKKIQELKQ

P5bHq = biological target: T20, P5bHq
T20 chain: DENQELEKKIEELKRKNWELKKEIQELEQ

P8bHq = biological target: T21, P8bHq
T21 chain: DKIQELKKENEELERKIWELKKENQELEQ

P4bHq = biological target: T22, P4bHq
T22 chain: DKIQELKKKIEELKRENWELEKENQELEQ

## DKIQQLEQKNQELEQKIQELKWEIQELEQ [4H2473-bN]
4H741-bN
  interaction score: -1.72
4H3277-bN
  interaction score: -1.47
4H2503-bN
  interaction score: -1.11
4H2717-bN
  interaction score: -2.13
4H2673-bH
  interaction score: 0.46
4H348-bN
  interaction score: -0.231
4H2839-bN
  interaction score: -1.21
4H40-bN
  interaction score: -0.598
4H319-bN
  interaction score: -0.961
4H477-bN
  interaction score: -0.81
4H3057-bN
  interaction score: -0.442
4H2692-bN
  interaction score: -0.666
4H2915-bN
  interaction score: 0.258
4H492-bN
  interaction score: -0.992
4H2588-bN
  interaction score: -1.58
4H2473-bN
  interaction score: 0.273

## DEIQELEKEIEELERKNWELKKKNQELKQ [P3bHq]
P9bHq
  interaction score: -0.595
P7bHq
  interaction score: 0.482
P6bHq
  interaction score: -0.227
P5bHq
  interaction score: 1.1
P8bHq
  interaction score: 0.414
P4bHq
  interaction score: 1.75
